Target: Histidine-tagged rat N-WASP (rat, UniProt O08816 1-501)
Experiment: pull-down

Chain of Histidine-tagged rat N-WASP (O08816 whole entry): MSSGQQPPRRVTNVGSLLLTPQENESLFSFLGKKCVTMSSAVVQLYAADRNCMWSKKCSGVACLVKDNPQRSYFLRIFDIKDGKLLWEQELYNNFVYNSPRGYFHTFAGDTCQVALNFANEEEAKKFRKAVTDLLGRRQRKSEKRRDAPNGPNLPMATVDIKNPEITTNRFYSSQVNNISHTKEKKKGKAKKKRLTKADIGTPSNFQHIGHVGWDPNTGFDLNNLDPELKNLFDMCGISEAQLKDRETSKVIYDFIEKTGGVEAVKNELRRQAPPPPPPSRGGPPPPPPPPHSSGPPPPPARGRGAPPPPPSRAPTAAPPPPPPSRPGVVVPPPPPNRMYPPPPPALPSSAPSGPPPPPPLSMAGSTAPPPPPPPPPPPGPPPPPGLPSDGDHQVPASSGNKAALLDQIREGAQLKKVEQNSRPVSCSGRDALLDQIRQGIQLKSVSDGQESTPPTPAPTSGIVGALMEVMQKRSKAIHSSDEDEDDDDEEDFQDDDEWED

B1: Recombinant VirG-α1 protein (Thr53–Arg759 of VirG polypeptide) (domain or fragment, S. flexneri, UniProt Q7BCK4 53-759, looked up)
chain: TPLSGTQELHFSEDNYEKLLTPVDGLSPLGAGEDGMDAWYITSSNPSHASRTKLRINSDIMISAGHGGAGDNNDGNSCGGNGGDSITGSDLSIINQGMILGGSGGSGADHNGDGGEAVTGDNLFIINGEIISGGHGGDSYSDSDGGNGGDAVTGVNLPIINKGTISGGNGGNNYGEGDGGNGGDAITGSSLSVINKGTFAGGNGGAAYGYGYDGYGGNAITGDNLSVINNGAILGGNGGHWGDAINGSNMTIANSGYIISGKEDDGTQNVAGNAIHITGGNNSLILHEGSVITGDVQVNNSSILKIINNDYTGTTPTIEGDLCAGDCTTVSLSGNKFTVSGDVSFGENSSLNLAGISSLEASGNMSFGNNVKVEAIINNWAQKDYKLLSADKGITGFSVSNISIINPLLTTGAIDYTKSYISDQNKLIYGLSWNDTDGDSHGEFNLKENAELTVSTILADNLSHHNINSWDGKSLTKSGEGTLILAEKNTYSGFTNINAGILKMGTVEAMTRTAGVIVNKGATLNFSGMNQTVNTLLNSGTVLINNINAPFLPDPVIVTGNMTLEKNGHVILNNSSSNVGQTYVQKGNWHGKGGILSLGAVLGNDNSKTDRLEIAGHASGITYVAVTNEGGSGDKTLEGVQIISTDSSDKNAFIQKGRIVAGSYDYRLKQGTVSGLNTNKWYLTSQMDNQESKQMSNQESTQMSSRR
fold change of coprecipitated amount with Cdc42-G12V (GTPγS) against without: 1.2 fold

Reference: paper PMC2213524 (The Journal of Experimental Medicine, 2000)
